# According to patent US20200155661A1 (LENTIGEN TECHNOLOGY, published 2020):
# Target: T1, recombinant human CD22 (labeled CD22 used in flow cytometry of yeast) (human, UniProt P20273 20-687, limits assumed, fluorescent label, not specified)
# T1 construct: also called fluorescently tagged antigen
# Assay: flow cytometry of yeast-displayed scFv with decreasing amounts of labeled CD22
# Experimental: After electroporation, the resulting mutant library was then grown overnight at 30° C. for 16 hours in SDCAA medium and then switched into SGCAA medium at 30° C. for another 16 hours. The mutant library was then sorted through MACS (immunomagentic column, Miltenyi Biotec) with CD22-Fc as the capture antigen to downsize the library and to increase the population of mutants that could bind to CD22-Fc. The strongest binders were then selected by double staining the pools with Anti-c-Myc-Alexa 488 and […]/Anti-Hu-Fc and selecting for the binders that had the highest binding affinities as well as c-Myc expression levels. […] Binding affinities were estimated by flow cytometry of yeast pools using decreasing amounts of labeled CD22.
row,EC50,Binder
1,0.5 µg/mL,"CD22-specific binder (scFv1) 16P (scFv, also called founder clone) scFv: QVQLQQSGPGLVKPSQTLSLTCAISGDSVSSNSAAWNWIRQSPSRGLEWLGRTYYRSKWYNDYAVSVKSRITINPDTSKNQFSLQLNSVTPEDTAVYYCAQEVQPHDAFDIWGQGTMVTVSSGGGGSGGGGSGGGGSDIQMTQSPSSVSASVGDKVTITCRASQDVSGWLAWYQQKPGLAPQLLIFGASTLQGEVPSRFSGSGSGTDFTLTISSLQPEDFATYYCQQAKNFPYTFGQGTKLEIKR"
2,< 0.01 µg/mL,CD22-specific binder (scFv18) 16P15 (scFv) scFv: QVQLQQSGPGLVKPSQTLSLTCAISGDSVSSNSAAWNWIRQSPSRGLEWLGRTYYRSKWYNDYAVSVKSRITINPDTSKNQFSLQLNSVTPEDTAVYYCAQEVEPHDALDIWGQGTMVTVSSGGGGSGGGGSGGGGSDIQMTQSPSSVSASVGDKVTITCRASQDVSGWLAWYQQKPGLAPQLLIFGASTLQGEVPSRFSGSGSGTDFTLTISSLQPEDFATYYCQQAKYFPYTFGQGTKLEIK
3,< 0.01 µg/mL,CD22-specific binder (scFv8) 16P20 (scFv) scFv: QVQLQQSGPGLVKPSQTLSLTCAISGDSVSSNSAAWNWIRQSPSRGLEWLGRTYYRSKWYNDYAVSVKSRITINPDTSKNQFSLQLNSVTPEDTAVYYCAQEVEPHDALDIWGQGTMVTVSSGGGGSGGGGSGGGGSDIQMTQSPSSVSASVGDKVTITCRASQDVSGWLAWYQQKPGLAPQLLIFGASTLQGEVPSRFSGSGSGTDFTLTISSLQPEDFATYYCQQAKYFPYTFGQGTKLEIK
4,< 0.01 µg/mL,CD22-specific binder (scFv12) 16P17 (scFv) scFv: QVQLQQSGPGLVKHSQTLSLTCAISGDSVSSNSAAWNWIRQSPSRGLEWLGRTYYRSKWYNDYAVSVKSRITINPDTSKNQFSLQLNSVTPEDTAVYYCAQEVEPHDAFDIWGQGTMVTVSSGGGGSGGGGSGGGGSDIQMTQSPSSVYASVGDKVTITCRASQDVSGWLAWYQQKPGLAPQLLISGASTLQGEVPSRFSGSGSGTDFTLTISSLQPEDFATYYCQQAKYFPYTFGQGTKLEIK
5,< 0.01 µg/mL,CD22-specific binder (scFv16) 16P8 (scFv) scFv: QVQLQQSGPGLVKPSQTLSLTCAISGDSVSSNSAAWNWIRQSPSRGLEWLGRTYYRSKWYTDYAVSVKNRITINPDTSKNQFSLQLNSVTPEDTAVYYCAQEVEPQDAFDIWGQGTMVTVSSGGGGSGGGGSGGGGSDIQMTQSPSSVSASVGDKVTITCRASQDVSGWLAWYQQKPGLAPQLLIFGASTLQGEVPSRFSGSGSGTDFTLTISSLQPEDFATYYCQQAKYFPYTFGRGTKLEIK
6,< 0.01 µg/mL,CD22-specific binder (scFv9) 16P2 (scFv) scFv: QVQLQQSGPGLVKPSQTLSLTCAISGDSVSSNSAAWNWIRQSPSRGLEWLGRTYYRSKWYNDYAVSVKSRITINPDTFKNQFSLQLNSVTPEDTAVYYCAQEVEPHDALDIWGQGTMVTVSSGGGGSGGGGSGGGGSDIKMTQSPSSVSASVGDKVTITCRASQDVSGWLAWYQQKPGLAPQLLIFGASTLQGEVPSRFSGSGSGTDFTLTISSLQPEDFATYYCQQAKYFPYTFGQGTKLEIK
7,< 0.01 µg/mL,CD22-specific binder (scFv14) 16P1 (scFv) scFv: QVQLQQSGPGLVKPSQTLSLTCDISGDSVSSNSAAWNWIRQSPSRGLEWLGRTYYRSKWYNDYAVSVKSRITINPDTSKNQFSLQLNSVTPEDTAVYYCAQEIEPHDAFDIWDQGTMVTVSSGGGGSGGGGSGGGGSVIQMTQSPSSVSASVGDKVTITCRASQDVSGWLAWYQQKPGLAPQLLISGASSLQGGVPSRFSGSGSGTDFTLTISSLQPEDFATYYCQQAKYFPYTFGQGTKLEIK
8,< 0.01 µg/mL,CD22-specific binder (scFv11) 16P10 (scFv) scFv: QVQLQQSGPGLVKPSQTLSLTCAISGDSVSSNSAAWNWIRQSPSRGLEWLGRTYYRSKWYNDYAVSVKSRITINPDTSKNQFSLQLNSVTPEDTAVYYCAQEVEPQDAFDIWGQGTMVTVSSGGGGSGGGGSGGGGSDIQMTQSPSSVSASVGDKVTITCRASQDVSGWLAWYQQKPGLAPQLLIFGASTLQGEVPSRFSGSGSGTDFTLTISSLQPEDFATYYCQQAKYFPYTFGPGTKLEIK
9,< 0.01 µg/mL,CD22-specific binder (scFv17) 16P13 (scFv) scFv: QVQLQQSGPGLVKPSQTLSLTCAISGNSVSSNSAAWNWIRQSPSRGLEWLGRTYYRSKWYNDYAVSVKSRITINPDTSKNQFSLQLNSVTPEDTAVYYCAQEVEPQDAFDIWGQGTMVTVSSGGGGSGGGGSGGGGSDIQMTQSPSSVSASVGDKVTITCRASQDVSGWLAWYQQKPGLAPQLLIFGASTLQGEVPSRFSGGGSGTDFTLTISSLQPEDFATYYCQQAKYFPYTFGQGTKLEIK
10,< 0.01 µg/mL,CD22-specific binder (scFv7) 16P16 (scFv) scFv: QVQLQQSGPGLVKPSQTLSLTCAISGDSVSSNSAAWNWIRQSPSRGLEWLGRTYYRSKWYNDYAVSVKSRITINPDTFKNQFSLQLNSVTPEDTAVYYCAQEVEPHDALDIWGQGTMVTVSSGGGGSGGGGSGGGGSDIKMTQSPSSVSASVGDKVTITCRASQDVSGWLAWYQQKPGLAPQLLIFGASTLQGEVPSRFSGSGSGTDFTLTISSLQPEDFATYYCQQAKYFPYTFGQGTKLEIK
11,< 0.01 µg/mL,CD22-specific binder (scFv6) 16P3 (scFv) scFv: QIQLQQSGPGLVKPSQTLSLTCAISGDSVSSNSAAWNWIRQSPSRGLEWLGRTYYRSKWYNDYAVSVKSRITINPDTSKNQFSLQLNSVTPEDTAVYYCAQEVQPDDALDIWGQGTMVTVSSGGGGSGGGGSGGGGSDIQMTQSPSSVSASVGDKVTITCRASQDVSGWLAWYQQKPGLAPQLLISGASTLQGEVPSRFSGSGSGTDFTLTISSLQPEDFATYYCQQAKNFPYTFGQGTKLEIK
12,< 0.01 µg/mL,CD22-specific binder (scFv13) 16P20v2 (scFv) scFv: QVQLQQSGPGLVKPSQTLSLTCAISGDSVSSNSAAWNWIRQSPSRGLEWLGRTYYRSKWYNDYAVSVKSRITINPDTSKNQFSLQLNSVTPEDTAVYYCAQEVQPDDAFDIWGQGTMVTVSSGGGGSGGGGSGGGGSDIQMTQSPSSVSASVGDKVTITCRASQDVSGWLAWYQQKPGLAPQLLISGASTLQGEVPSRFSGSGSGTDFTLTISSLQPEDFATYYCQQAKNFPYTFGQGTKLEIK
13,< 0.01 µg/mL,CD22-specific binder (scFv10) 16P6 (scFv) scFv: QVQLQQSGPGLVKPSQTLSLTCAISGDSVSSNSAAWNWIRQSPSRGLEWLGRTYYRSKWYNDYAVSVKSRITINPDTSKNQFSLQLNSVTPEDTAVYYCAQEVQPDDAFDIWGQGTMITVSSGGGGSGGGGSGGGGSDIQMTQSPSSVSASVGDKVTITCRASQDVSGWLAWYQQKPGLAPQLLISGASTLQGGVPSRFSGSGSGTDFTLTISSLQPEDFATYYCQQAKNFPYTFGQGTKLEIK
14,< 0.01 µg/mL,CD22-specific binder (scFv15) 16P3v2 (scFv) scFv: QVQLQQSGPGLVKHSQTLSLACAISGDSVSSNSAAWNWIRQSPSRGLEWLGRTYYRSKWYNDYAVSVKSRITINPDTSKNQFSLQLNSVTPEDTAVYYCAQEVQPQDALDIWGQGTMVTVSSGGGGSGGGGSGGGGSDIQMTQSPSFVSASVGDKVIITCRASQDVSGWLAWYQQKPGLAPQLLISGASTLQGEVPSRFSGSGSGTDFTLTISSLQPEDFATYYCQQAKYFPYTFGQGTKLEIK

# Target: T2, CD22 expressed on cells (CHOK1-CD22, K562-CD22, Raji, Reh) (human, UniProt P20273 20-847)
# T2 construct: whole, on cells; also called SIGLEC-2; Leu14
# Assay: yeast display cell panning on CHOK1 cells transfected with CD22
# Experimental: The same ScFv starting material as for phage display was also incorporated into a yeast ScFv display system. To supplement phage-based scFv analysis, yeast libraries expressing the human scFv library were also screened. To enrich the yeast expressing scFvs that bind to both the recombinant CD22-Fc and the […] expressed on the cell surface of the CHOK1 cells, cell panning on CHOK1 transfected with CD22 cells was performed. For the first round of panning on the cell surface, two days prior to panning, the CHOK1-CD22 cells were seeded into 6-well plates and grown to 50% confluency in F12 K medium. 5×10⁷ yeast cells were then washed 2× with PBSA buffer and resuspended into 3 mL F12 K medium, and then gently added dropwise to the CHOK1-CD22 cells. […] The cell mix containing both the yeast and CHOK1 cells were then inoculated into 10 mL SDCAA medium and amplified overnight at 30° C. and then induced in SGCAA medium at 30° C. for 16 hours. For the second round of cell panning, a similar protocol as above was performed, but more stringent wash conditions were used. […] Binder sequences were incorporated into CART constructs as described in Example 2, infra, in a series of in vitro CART functional assays.
row,binding result,Binder
1,binds,"CD22-specific binder (scFv3) 25P (scFv, Lambda light chain) scFv: QVQLQQSGPGLVKPSQTLSLTCAISGDSVSSNSAAWNWIRQSPSRGLEWLGRTYYRSKWYNDYAVSVKSRITINPDTSKNQFSLQLNSLTPEDTAVYYCAREHQNEAAFDIWGQGTMVTVSSGGGGSGGGGSGGGGSQSVLTQPPSASGTPGQRVTISCSGGGSNIGTNTASWYQQLPGTAPKLLIYRNTQRPSGIPDRFSGSKSGTSASLAISGLQSEDEADYYCAAWDDSLNGYVFGAGTQLTVLG"
2,binds,CD22-specific binder (scFv5) 12s (scFv) scFv: QVQLQQSGPGLVKPSQTLSLTCAISGDSVSSNSAAWNWIRQSPSRGLEWLGRTYYRSKWYNDYAVSVKSRITINPDTSKNQFSLQLNSVTPEDTAVYYCAREGDDALDIWGQGTMVTVSSGGGGSGGGGSGGGGSDIQMTQSPSSLSASVGDRVTITCRASQSISHFLNWYQQKPGTAPKLLITTASGLGSGVPSRFSGSGSGTDFTLTINSLQPEDLATYYCQQSYTTPLTFGGGTKLEIKR
